Experimental data from US20240124586A1 (WUXI BIOLOGICS IRELAND, published 2024).
Values belong to the binder of their own block, whether it stands above or below them.

Key:
[1] = target: T1, human PD-1 on engineered CHO-S cells (W305-CHO-S.hPro1.C6) (human, UniProt Q15116 25-288); assay: FACS binding to human PD-1 engineered cells
T1 construct: whole, on cells; also called human PD-1 engineered cells; PD-1+ cells
Protocol: Engineered human PD-1 expressing cells W305-CHO-S.hPro1.C6 were seeded at 1×10⁵ cells/well in U-bottom 96-well plates (COSTAR 3799). Antibodies with 3.16-fold titration in 1% BSA DPBS from 200 nM to 0.002 nM were added to the cells. The plates were incubated at 4° C. for 1 hour. After wash, […] 1:125 diluted PE-labeled goat anti-human antibody (Jackson 109-115-098) was added to each well and the plates were incubated at 4° C. for 1 hour. The binding of the antibodies onto the cells was tested by flow cytometry and the mean fluorescence intensity (MFI) was analyzed by FlowJo.

[2] = target: T2, human CTLA-4 on engineered 293F cells (W316-293F.hPro1.FL) (human, UniProt P16410 36-223); assay: FACS binding to human CTLA-4 engineered cells
T2 construct: whole, on cells; also called human CTLA-4 engineered cells; CTLA-4+ cells
Protocol: 3.16-fold titrated Abs with 1% BSA DPBS from 200 nM to 0.002 nM were added to the cells. Plates were incubated at 4° C. for 1 hour. After wash, […] 1:150 diluted PE-labeled goat anti-human antibody (Jackson 109-115-098) was added to each well and the plates were incubated at 4° C. for 1 hour. The binding of the antibodies onto the cells was tested by flow cytometry and the mean fluorescence intensity (MFI) was analyzed by FlowJo.

[3] = target: T3, ECD of human PD-1 (SPR analyte) (human, UniProt Q15116 25-170); assay: SPR (Biacore T200), antibody captured by anti-human Fc, PD-1 ECD as analyte
T3 construct: extracellular domain; the SPR method only says ECD of PD-1; also called W305-hPro1.ECD.His
Protocol: SPR technology was used to measure the on-rate constant (ka) and off-rate constant (kd) of the antibodies to ECD of CTLA-4 or PD-1. The affinity constant (KD) was consequently determined.
Biacore T200, Series S Sensor Chip CM5, Amine Coupling Kit, and 10×HBS-EP were purchased from GE Healthcare. Goat anti-human IgG Fc antibody was purchased from Jackson ImmunoResearch Lab (catalog number 109-005-098). In immobilization step, the activation buffer was prepared by mixing 400 mM EDC and 100 mM NHS immediately prior to injection. The CM5 sensor chip was activated for 420 s with the activation buffer. 30 μg/mL of goat anti-human IgG Fcγ antibody in 10 mM NaAc (pH 4.5) was then injected to Fc1-Fc4 channels for 200 s at a flow rate of 5 μL/min. The chip was deactivated by 1 M ethanolamine-HCl (GE). Then the antibodies were captured on the chip. Briefly, 4 μg/mL antibodies in running buffer (HBS-EP+) was injected individually to Fc3 channel for 30 s at a flow rate of […]. […] Regeneration buffer (10 mM Glycine pH 1.5) was injected at 10 μL min for 30 s following every dissociation phase.

[4] = target: T4, hCTLA4.ECD.hFc (human); assay: dual-binding ELISA (hCTLA4.ECD.hFc coated, detected with hPD-1-ECD.Biotin), sample kept 14 d in human serum at 37 C
T4 construct: ECD fused to a human Fc; not biotinylated; also called Human CTLA-4: W316-hPro1.ECD.hFc (in house)
Protocol: The antibodies were incubated in freshly isolated human serum at 37° C. On indicated time points, an aliquot of serum treated sample was removed from the incubator and snap frozen in liquid nitrogen, and then stored at −80° C. until ready for a dual-binding ELISA test. The frozen samples were quickly thawed immediately prior to the stability test. Briefly, plates were pre-coated with 0.5 μg/mL of hCTLA4.ECD.hFc (in house) at 4° C. overnight. After 1-hour blocking, the testing antibodies were added to the plates at various concentrations. The plates were incubated at ambient temperature for 1 hour. Following the incubation, the plates were washed three times with 300 μL per well of PBS containing 0.5% (v/v) Tween 20. Then 0.1 μg/ml hPD-1-ECD.Biotin was added to plates and the mixture was incubated for 1 hour. After washing the plates three times, Streptavidin-HRP (Lifetechnologies, #SNN1004) (1:20000 diluted) was added and incubated on the plates for 1 hour at room temperature. After washing six times with 300 μL per well of PBS containing 0.5% (v/v) Tween 20, 100 μL tetramethylbenzidine (TMB) substrate is added for the detection per well. The reaction was stopped after approximately 5 minutes by addition of 100 μL per well of 2 M HCl. The absorbance of the wells was measured at 450 nm with a multiwall plate reader (SpectraMax® M5e). […]

[5] = target: T5, human CD3 on CD3+ Jurkat cells (human, UniProt P07766 23-207; P09693 23-182; P04234 22-171); assay: flow cytometry on Jurkat cells
T5 construct: whole, on cells; also called CD3 positive Jurkat cells

[6] = target: T6, Cynomolgus CD3 epsilon protein (W331-cynoPro1.ECD.His) (cynomolgus, UniProt Q95LI5 22-117); assay: ELISA, cynomolgus CD3 epsilon protein coated
T6 construct: extracellular domain; Bought protein; also called Acro #CDE-C5226
T6 sequence (looked up): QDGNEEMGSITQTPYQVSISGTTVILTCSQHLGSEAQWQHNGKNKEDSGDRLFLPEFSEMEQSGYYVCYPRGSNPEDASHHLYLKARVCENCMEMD
Protocol: The binding of the CD3×CD19 bispecific antibody to Cynomolgus CD3 were tested by protein binding ELISA. […] All wells were washed one time with 300 μL per well of PBS/0.5‰ Tween-20 (v/v). The wells were then blocked for one hour at room temperature with 200 μL per well of PBS/2% BSA (BOVOGEN, #BSAS) and washed three times with 300 μL per well of PBS/0.5‰ Tween-20 (v/v). For the primary antibody binding, CD3×CD19 bispecific antibody serially diluted in PBS/2% BSA were added to the relevant wells and incubated at room temperature for two hours. […] Plates were incubated at room temperature for one hour, followed by six washes as described above. […] The extent of bispecific antibody binding to Cynomolgus CD3 was determined by measuring the OD450 absorbance using the SpectraMax® M5e microplate reader. Wherever appropriate, binding EC50 values were obtained by the four-parameter non-linear regression analysis using GraphPad Prism5 software.

[7] = target: human C1Q (human, UniProt P02745 23-245; P02746 28-253; P02747 29-245); assay: ELISA, antibody coated on the plate, C1q titrated
Protocol: ELISA Plates (Nunc) were coated with antibody samples at 3 μg/mL overnight at 4° C. After blocking and washing, C1q was gradient diluted starting from 600 μg/mL and incubated at room temperature for 2 hr. The plates were then washed and subsequently incubated with sheep anti-human C1q Ab-HRP for 1 hr. After washing, TMB substrate was added and the interaction was stopped by 2 M HCl. The absorbance at 450 nm was read using a microplate reader (Molecular Device).
The binding activity of antibodies to C1Q was tested by ELISA.

T3 sequence (Q15116 25-170): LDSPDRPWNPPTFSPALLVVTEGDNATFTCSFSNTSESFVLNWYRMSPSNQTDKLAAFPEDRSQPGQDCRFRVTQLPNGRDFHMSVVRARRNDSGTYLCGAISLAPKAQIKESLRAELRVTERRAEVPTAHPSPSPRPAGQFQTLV
T1 sequence (Q15116 25-288, change not shown): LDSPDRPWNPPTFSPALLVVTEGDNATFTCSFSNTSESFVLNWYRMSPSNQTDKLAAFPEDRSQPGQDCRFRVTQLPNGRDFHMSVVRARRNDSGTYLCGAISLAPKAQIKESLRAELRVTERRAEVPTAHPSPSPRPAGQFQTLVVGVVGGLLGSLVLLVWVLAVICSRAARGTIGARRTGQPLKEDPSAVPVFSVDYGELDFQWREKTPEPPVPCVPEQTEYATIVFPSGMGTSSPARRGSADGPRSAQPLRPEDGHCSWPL
T4 sequence (P16410 36-161): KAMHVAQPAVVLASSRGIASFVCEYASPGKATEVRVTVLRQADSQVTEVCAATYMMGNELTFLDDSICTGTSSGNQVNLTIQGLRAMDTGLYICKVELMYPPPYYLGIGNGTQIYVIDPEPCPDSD
T2 sequence (P16410 36-223, change not shown): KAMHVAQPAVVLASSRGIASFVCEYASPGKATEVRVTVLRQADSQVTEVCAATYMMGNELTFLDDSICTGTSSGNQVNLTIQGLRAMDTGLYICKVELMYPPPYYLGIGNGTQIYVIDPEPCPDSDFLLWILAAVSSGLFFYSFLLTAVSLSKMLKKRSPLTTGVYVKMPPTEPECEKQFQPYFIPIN
T5 sequence (P07766 23-207, chain 1 of 3): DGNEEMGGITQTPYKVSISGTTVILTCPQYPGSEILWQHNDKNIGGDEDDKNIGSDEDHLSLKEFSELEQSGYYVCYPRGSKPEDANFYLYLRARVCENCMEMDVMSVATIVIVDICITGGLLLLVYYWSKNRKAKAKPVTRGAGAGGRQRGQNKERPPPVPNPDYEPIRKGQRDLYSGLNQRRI
T5 sequence (P09693 23-182, chain 2 of 3): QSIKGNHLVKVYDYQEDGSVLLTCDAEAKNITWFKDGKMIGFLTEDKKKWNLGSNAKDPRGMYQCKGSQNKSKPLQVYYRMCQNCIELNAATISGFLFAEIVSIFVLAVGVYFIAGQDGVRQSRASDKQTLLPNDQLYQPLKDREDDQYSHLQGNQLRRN
T5 sequence (P04234 22-171, chain 3 of 3): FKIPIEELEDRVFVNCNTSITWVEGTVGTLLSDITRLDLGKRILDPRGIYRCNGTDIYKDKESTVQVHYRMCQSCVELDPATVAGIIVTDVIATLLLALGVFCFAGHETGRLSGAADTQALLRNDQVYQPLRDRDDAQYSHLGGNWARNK
Sequence of human C1Q (P02745 23-245 limits assumed, chain 1 of 3): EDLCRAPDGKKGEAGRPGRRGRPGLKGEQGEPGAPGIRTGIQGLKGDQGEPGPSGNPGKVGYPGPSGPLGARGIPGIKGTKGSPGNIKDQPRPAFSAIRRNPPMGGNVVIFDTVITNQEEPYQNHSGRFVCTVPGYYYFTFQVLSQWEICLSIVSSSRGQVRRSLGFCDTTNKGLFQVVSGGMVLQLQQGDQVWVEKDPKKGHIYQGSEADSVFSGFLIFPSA
Sequence of human C1Q (P02746 28-253 limits assumed, chain 2 of 3): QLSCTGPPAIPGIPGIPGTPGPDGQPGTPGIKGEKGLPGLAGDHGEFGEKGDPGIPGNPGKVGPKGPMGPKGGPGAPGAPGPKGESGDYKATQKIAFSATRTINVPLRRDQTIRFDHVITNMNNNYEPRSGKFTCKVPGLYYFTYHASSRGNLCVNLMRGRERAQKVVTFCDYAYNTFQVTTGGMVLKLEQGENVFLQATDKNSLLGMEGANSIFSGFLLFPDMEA
Sequence of human C1Q (P02747 29-245 limits assumed, chain 3 of 3): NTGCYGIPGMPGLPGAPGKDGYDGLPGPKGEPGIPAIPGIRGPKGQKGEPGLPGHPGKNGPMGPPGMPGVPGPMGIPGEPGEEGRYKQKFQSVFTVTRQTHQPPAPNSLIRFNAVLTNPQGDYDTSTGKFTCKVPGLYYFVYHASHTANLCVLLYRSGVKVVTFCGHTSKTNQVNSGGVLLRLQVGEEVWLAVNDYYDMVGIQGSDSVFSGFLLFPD

EC50 [1]: 1.18 nM | EC50 [2]: 3.17 nM | Kd [3]: 1.32 nM | EC50 [4]: 0.0989 nM
B1: W3248-U6T5.G25-1.uIgG4.SP, bispecific anti-PD-1 x CTLA-4 (bispecific antibody)
heavy: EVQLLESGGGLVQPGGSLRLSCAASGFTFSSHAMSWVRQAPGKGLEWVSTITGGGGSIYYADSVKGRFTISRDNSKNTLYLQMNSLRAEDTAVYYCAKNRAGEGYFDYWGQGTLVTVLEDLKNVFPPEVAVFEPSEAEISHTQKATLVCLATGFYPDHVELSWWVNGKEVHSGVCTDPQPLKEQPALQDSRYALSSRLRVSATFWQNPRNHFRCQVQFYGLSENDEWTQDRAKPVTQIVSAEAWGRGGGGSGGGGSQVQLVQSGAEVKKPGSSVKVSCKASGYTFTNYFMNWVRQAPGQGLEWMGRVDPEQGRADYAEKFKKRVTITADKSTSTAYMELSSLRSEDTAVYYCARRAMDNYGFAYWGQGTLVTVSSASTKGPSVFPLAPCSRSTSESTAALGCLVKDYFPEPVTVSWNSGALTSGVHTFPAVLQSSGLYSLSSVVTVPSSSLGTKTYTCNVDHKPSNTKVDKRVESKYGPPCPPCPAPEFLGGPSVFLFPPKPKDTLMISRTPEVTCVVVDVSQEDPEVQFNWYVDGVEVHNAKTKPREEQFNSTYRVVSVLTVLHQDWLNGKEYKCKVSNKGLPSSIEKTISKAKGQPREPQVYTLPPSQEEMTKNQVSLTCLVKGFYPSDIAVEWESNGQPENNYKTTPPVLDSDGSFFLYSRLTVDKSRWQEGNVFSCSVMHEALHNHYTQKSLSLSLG
light 1: SYELTQPLSVSVALGQTARITCGGDNIGNKDVHWYQQKPGQAPVLVIYRDSNRPSGIPEGFSGSNSGNTATLTISRAQAGDEADYYCQVWDSIWVFGGGTKLTVLPDIQNPDPAVYQLRDSKSSDKSVCLFTDFDSQTQVSQSKDSDVYITDKCVLDMRSMDFKSNSAVAWSQKSDFACANAFQNSIIPEDTFFPSPESS
light 2: EIVLTQSPDFQSVTPKEKVTITCSANSALSYMYWYQQKPDQSPKLWVHGTSNLASGVPSRFSGSGSGTDFTLTINSLEAEDAATYYCHHWSNTQWTFGGGTKVEIKRTVAAPSVFIFPPSDEQLKSGTASVVCLLNNFYPREAKVQWKVDNALQSGNSQESVTEQDSKDSTYSLSSTLTLSKADYEKHKVYACEVTHQGLSSPVTKSFNRGEC
notes: IgG4 (S228P); also called WBP3248-U6T5.G25-1-uIgG4.SP; U6T5.G25.IgG4

EC50 [5]: 47 nM | EC50 [6]: 0.04 nM | binding result [7]: no binding (tested: about 1500 nM C1q)
B2: W3438-T3U4.E17-1.uIgG4.SP, bispecific anti-CD3 x CD19 (bispecific antibody)
heavy 1: QVQLVQSGAEVKKPGSSVKVSCKASGFAFTDYYIHWVRQAPGQGLEWMGWISPGNVNTKYNENFKGRVTITADKSTSTAYMELSSLRSEDTAVYYCARDGYSLYYFDYWGQGTLVTVLEDLKNVFPPEVAVFEPSEAEISHTQKATLVCLATGFYPDHVELSWWVNGKEVHSGVCTDPQPLKEQPALQDSRYALSSRLRVSATFWQNPRNHFRCQVQFYGLSENDEWTQDRAKPVTQIVSAEAWGRYGPPCPPCPAPEFLGGPSVFLFPPKPKDTLMISRTPEVTCVVVDVSQEDPEVQFNWYVDGVEVHNAKTKPREEQFNSTYRVVSVLTVLHQDWLNGKEYKCKVSNKGLPSSIEKTISKAKGQPREPQVYTLPPCQEEMTKNQVSLWCLVKGFYPSDIAVEWESNGQPENNYKTTPPVLDSDGSFFLYSRLTVDKSRWQEGNVFSCSVMHEALHNHYTQKSLSLSLGK
light 1: DIVMTQSPDSLAVSLGERATINCKSSQSLLNSRTRKNYLAWYQQKPGQPPKLLIYWASTRQSGVPDRFSGSGSGTDFTLTISSLQAEDVAVYYCTQSHTLRTFGGGTKVEIKPDIQNPDPAVYQLRDSKSSDKSVCLFTDFDSQTQVSQSKDSDVYITDKCVLDMRSMDFKSNSAVAWSQKSDFACANAFQNSIIPEDTFFPSPESS
heavy 2: QMQLVQSGPEVKKPGTSVKVSCKASGYAFTSYNMYWVRQARGQRLEWIGYIDPYNGDTTYNQKFKGRVTITRDMSTSTAYMELSSLRSEDTAVYYCLTTAYAMDYWGQGTLVTVSSASTKGPSVFPLAPCSRSTSESTAALGCLVKDYFPEPVTVSWNSGALTSGVHTFPAVLQSSGLYSLSSVVTVPSSSLGTKTYTCNVDHKPSNTKVDKRVESKYGPPCPPCPAPEFLGGPSVFLFPPKPKDTLMISRTPEVTCVVVDVSQEDPEVQFNWYVDGVEVHNAKTKPREEQFNSTYRVVSVLTVLHQDWLNGKEYKCKVSNKGLPSSIEKTISKAKGQPREPQVCTLPPSQEEMTKNQVSLSCAVKGFYPSDIAVEWESNGQPENNYKTTPPVLDSDGSFFLVSRLTVDKSRWQEGNVFSCSVMHEALHNHYTQKSLSLSLGK
light 2: DIQLTQSPSFLSASVGDRVTITCSASSTVNYMHWYQQKPGKAPKLLIYSTSNLASGVPSRFSGSGSGTEFTLTISSLQPEDFATYYCHQWSSYPYTFGQGTKLEIKRTVAAPSVFIFPPSDEQLKSGTASVVCLLNNFYPREAKVQWKVDNALQSGNSQESVTEQDSKDSTYSLSSTLTLSKADYEKHKVYACEVTHQGLSSPVTKSFNRGEC
notes: also called E17-Design_2-QQQQ (IgG4); E17-IgG4; copies: 1 + 1 + 1 + 1

EC50 [1]: 0.948 nM | Kd [3]: 1.24 nM | EC50 [4]: 0.156 nM
B3: W3248-U6T1.G25R-1.uIgG4.SP, bispecific anti-PD-1 x CTLA-4 (bispecific antibody)
heavy: EVQLLESGGGLVQPGGSLRLSCAASGFTFSSHAMSWVRQAPGKGLEWVSTITGGGGSIYYADSVKGRFTISRDNSKNTLYLQMNSLRAEDTAVYYCAKNRAGEGYFDYWGQGTLVTVSSASTKGPSVFPLAPCSRSTSESTAALGCLVKDYFPEPVTVSWNSGALTSGVHTFPAVLQSSGLYSLSSVVTVPSSSLGTKTYTCNVDHKPSNTKVDKRVGGGGSGGGGSQVQLVESGGGVVQPGRSLRLSCAASGFTFSSYTMHWVRQAPGKGLEWVTFISYDGNNKYYADSVKGRFTISRDNSKNTLYLQMNSLRAEDTAIYYCARTGWLGPFDYWGQGTLVTVLEDLKNVFPPEVAVFEPSEAEISHTQKATLVCLATGFYPDHVELSWWVNGKEVHSGVCTDPQPLKEQPALQDSRYALSSRLRVSATFWQNPRNHFRCQVQFYGLSENDEWTQDRAKPVTQIVSAEAWGRYGPPCPPCPAPEFLGGPSVFLFPPKPKDTLMISRTPEVTCVVVDVSQEDPEVQFNWYVDGVEVHNAKTKPREEQFNSTYRVVSVLTVLHQDWLNGKEYKCKVSNKGLPSSIEKTISKAKGQPREPQVYTLPPSQEEMTKNQVSLTCLVKGFYPSDIAVEWESNGQPENNYKTTPPVLDSDGSFFLYSRLTVDKSRWQEGNVFSCSVMHEALHNHYTQKSLSLSLG
light 1: SYELTQPLSVSVALGQTARITCGGDNIGNKDVHWYQQKPGQAPVLVIYRDSNRPSGIPEGFSGSNSGNTATLTISRAQAGDEADYYCQVWDSIWVFGGGTKLTVLGQPKAAPSVTLFPPSSEELQANKATLVCLISDFYPGAVTVAWKADSSPVKAGVETTTPSKQSNNKYAASSYLSLTPEQWKSHKSYSCQVTHEGSTVEKTVAPTECS
light 2: not shown
notes: IgG4 (S228P); also called U6T1.G25R.IgG4
